# Reference: patent publication US20240150474A1 (Regeneron, published 2024)
# T1: human ACVR1 extracellular domain expressed with a C-terminal mouse IgG2a Fc tag (human)
# T1 construct: also called hACVR1-mFc; REGN3112
# T1 chain: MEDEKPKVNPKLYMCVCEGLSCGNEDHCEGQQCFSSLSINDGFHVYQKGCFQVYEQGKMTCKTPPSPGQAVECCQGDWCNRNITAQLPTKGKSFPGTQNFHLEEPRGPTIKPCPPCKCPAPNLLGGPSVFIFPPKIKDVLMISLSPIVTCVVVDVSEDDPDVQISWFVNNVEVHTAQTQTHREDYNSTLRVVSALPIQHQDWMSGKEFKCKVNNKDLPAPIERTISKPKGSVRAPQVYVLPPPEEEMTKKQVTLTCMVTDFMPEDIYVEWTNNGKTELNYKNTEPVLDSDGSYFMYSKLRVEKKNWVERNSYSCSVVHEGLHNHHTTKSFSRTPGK
# T2: mouse ACVR1 extracellular domain expressed with a C-terminal mouse IgG2a Fc tag (mouse, UniProt P37172 21-123)
# T2 construct: extracellular domain; Bought from R&D Systems; also called mACVR1-mFc; R&D System 6506-RA-100; not shown: mouse IgG2a Fc tag
# T2 sequence (looked up): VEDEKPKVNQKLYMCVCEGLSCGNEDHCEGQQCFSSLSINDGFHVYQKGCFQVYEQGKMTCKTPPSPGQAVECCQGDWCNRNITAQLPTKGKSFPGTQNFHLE
# T3: dimeric mouse ACVRL1 (mouse, UniProt Q61288 23-119, limits assumed)
# T3 construct: Construct and dimerising part not described; also called Mouse Receptor ACVRL1
# T3 sequence (looked up): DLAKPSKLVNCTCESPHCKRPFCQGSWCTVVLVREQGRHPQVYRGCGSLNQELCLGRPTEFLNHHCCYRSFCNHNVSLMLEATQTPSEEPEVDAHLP
# T4: dimeric mouse ACVR1 (mouse, UniProt P37172 21-123, limits assumed)
# T4 construct: also called Mouse Receptor ACVR1
# T4 sequence (looked up): T2 sequence (looked up)
# T5: human ACVR1 extracellular domain expressed with a C-terminal myc-myc-hexahistidine tag (human)
# T5 construct: also called hACVR1-mmh; hACVR1.mmh
# T5 chain: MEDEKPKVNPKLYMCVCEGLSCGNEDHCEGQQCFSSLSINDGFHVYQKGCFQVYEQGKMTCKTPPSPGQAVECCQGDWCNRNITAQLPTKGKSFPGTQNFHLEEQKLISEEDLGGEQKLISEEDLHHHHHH
# B1: REGN 5166 (antibody, human IgG4 S228P, kappa, V domains shown)
# VH: QVQLVESGGGVVQPGRSLRLSCAASGFTFSAYWMHWVRQAPGKGLEWVAVISYDGSNKYYADSVKGRFTISRDHSKNTLYLQMNSLRAEDTAVYYCAKGDAYDSWRILLGGDYYGMDVWGQGTTVTVSS
# VL: EIVLTQSPGTLSLSPGERATLSCRASQSVSSSYLAWYQQKPGQAPRPLIYGASSRATGIPDRFSGSGSGTDFTLTISRLEPEDFAVYYCQQGGDAPPYTFGGGTKVEIKR
# notes: also called REGN 5166-L1
# B2: REGN 5168 (antibody, human IgG4 S228P, kappa, V domains shown)
# VH: QVQLVQSGAEVKEPGASVKVSCKASGYTFAEYYMHWVRQAPGQGLEWMGAINPSGSHTSYAQKFQGRVTMTRDTSTSTVYMELSSLRSEDTAVYYCARSISGKRGGDYYGMDVWGQGTTVTVSS
# VL: DIQMTQSPSTLSASVGDRVTITCRASQSISSWLAWYQQKPGKAPKLLIYKASSLESGVPSRFSGSGSGTEFTLTISSLQPDDFATYYCQQYSIFPFTFGGGTKVEIKR
# notes: also called REGN 5168-L1
# B3: REGN 5167 (antibody, human IgG4 S228P, kappa, V domains shown)
# VH: QLQLQESGPGLVKPSETLSLTCTVSGGSITSSSYYWAWIRQPPGKGLEWIGKIYYSGSTHYNPSLKSRVTISVDTSKNQFSLKLSSVTAADTAVYYCARVGGHGYGDSAGLAFDIWGQGTMVTVSS
# VL: EIVLTQSPGTLSLSPGERATLSCRASQSVSSAFLAWYQQKPGQAPRLLIYGASYRHTGIPDRFSGSGSGTDFTLTISRLEPEDFAVYYCQHYGVGPRTFGGGTKVEIKR
# notes: also called REGN 5167-L1
# Target: T1, human ACVR1 extracellular domain …
# Assay: SPR Biacore T200, mAb captured by anti-human Fc, hACVR1-mFc injected, 37C
# Protocol: (§1) Equilibrium dissociation constants (KD) for ACVR1 binding to purified anti-ACVR1 monoclonal antibodies were determined using a real-time surface plasmon resonance (SPR) based Biacore T200 biosensor. All binding studies were performed in 10 mM HEPES, 150 mM NaCl, 3 mM EDTA, and 0.05% v/v surfactant Tween-20, pH 7.4 (HBS-EP) running buffer at […]. The Biacore CM5 sensor surface was first derivatized by amine coupling with a monoclonal mouse anti-human Fc antibody (REGN2567) to capture anti-ACVR1 monoclonal antibodies. Different concentrations of ACVR1 reagents, human ACVR1 extracellular domain expressed with a C-terminal myc-myc-hexahistidine tag (hACVR1-mmh; REGN3111, SEQ ID NO: 63), mouse ACVR1 extracellular domain expressed with a C-terminal myc-myc-hexahistidine tag (mACVR1-mmh; REGN3407, SEQ ID NO: 65), human ACVR1 extracellular domain expressed with a C-terminal mouse IgG2a Fc tag (hACVR1-mFc; REGN3112, SEQ ID NO: 64); and mouse ACVR1 extracellular domain expressed with a C-terminal mouse IgG2a Fc tag (mACVR1-mFc, R&D system), at concentrations ranging from 0.41 nM to 100 nM in a series of 3-fold dilutions prepared in HBS-EP running buffer were injected at a flow rate of 50 μL/min for 1.5 minutes. The dissociation of different ACVR1 reagents bound to anti-ACVR1 monoclonal antibodies was monitored for 20 minutes in HBS-EP running buffer. At the end of each cycle, the anti-ACVR1 monoclonal antibodies capture surface was regenerated using a 12 sec injection of 20 mM H3PO4. The association rate (ka) and dissociation rate (kd) were determined by fitting the real-time binding sensorgrams to a 1:1 binding model with mass transport limitation using Scrubber 2.0c curve-fitting software. Binding dissociation equilibrium constant (KD) and dissociative half-life (t½) were calculated from the kinetic rates as: […]
# (§2) Binding kinetics parameters for different ACVR1 reagents to anti-ACVR1 monoclonal antibodies of the invention at 37° C. are shown in Table 5 through Table 8.
Binder,100 nM Ag Bound (RU),Kd [nM],koff [s⁻¹],kon [M⁻¹ s⁻¹],t½ [h]
B1,142,0.0478,5.65e-05,1.18e+06,3.4
B2,145,0.191,0.000357,1.87e+06,0.533
B3,141,0.0481,5.36e-05,1.11e+06,3.58

# Target: T2, mouse ACVR1 extracellular domain …
# Assay: SPR Biacore T200, mAb captured by anti-human Fc, mACVR1-mFc injected, 37C
# Protocol: as §1, §2
Binder,100 nM Ag Bound (RU),Kd [nM],koff [s⁻¹],kon [M⁻¹ s⁻¹],t½ [h]
B1,134,0.0179,3.63e-05,2.03e+06,5.3
B2,135,0.0362,0.000111,3.06e+06,1.73
B3,135,0.0192,3.63e-05,1.89e+06,5.3

# Target: T3, dimeric mouse ACVRL1
# Assay: SPR Biacore T200, mAb captured by anti-human Fab, 100 nM dimeric receptor injected, 25C
# Protocol: (§3) ACVR1 mAbs were tested for cross-reactivity to a panel of bone morphogenic protein type 1 receptors including human and mouse ACVR1, BMPR1A, and BMPR1B, as well as ACVRL1 on a Biacore T200 as follows. In order to measure the specificity of ACVR1 mAbs, ACVR1 mAbs were captured with anti-human Fab immobilized on a CM5 chip. 100 nM or 10 nM of dimeric human or mouse ACVR1, ACVRL1, BMPR1A or BMPR1B were injected at 30 μL/min for 2 min (duplicate injections) and the experiment was performed at 25° C. Binding of different receptors to the captured mAb was determined using Scrubber 2.0c software.
row,Binder,100 nM Mouse Receptor Binding [RU]
1,B1,4
2,B2,3
3,B3,1

# Target: T6, dimeric mouse BMPR1A (mouse, UniProt P36895 24-152, limits assumed)
# T6 construct: Construct and dimerising part not described; also called Mouse Receptor BMPR1A
# Assay: as above
# Protocol: as §3
# T6 sequence (P36895 24-152 limits assumed): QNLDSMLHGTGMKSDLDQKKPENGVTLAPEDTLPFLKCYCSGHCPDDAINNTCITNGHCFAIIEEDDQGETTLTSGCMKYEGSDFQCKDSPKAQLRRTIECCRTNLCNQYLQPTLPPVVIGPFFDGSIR
row,Binder,100 nM Mouse Receptor Binding [RU]
1,B1,9
2,B2,8
3,B3,3

# Target: T7, dimeric human ACVRL1 (human, UniProt P37023 22-118, limits assumed)
# T7 construct: Construct and dimerising part not described; also called Human Receptor ACVRL1
# Assay: as above
# Protocol: as §3
# T7 sequence (P37023 22-118 limits assumed): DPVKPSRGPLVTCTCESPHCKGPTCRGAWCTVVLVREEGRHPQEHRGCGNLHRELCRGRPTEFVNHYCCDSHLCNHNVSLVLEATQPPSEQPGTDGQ
row,Binder,100 nM Human Receptor Binding [RU]
1,B1,4
2,B2,2
3,B3,1

# Target: T4, dimeric mouse ACVR1
# Assay: as above
# Protocol: as §3
row,Binder,100 nM Mouse Receptor Binding [RU]
1,B1,141
2,B2,140
3,B3,130

# Target: T8, dimeric human BMPR1A (human, UniProt P36894 24-152, limits assumed)
# T8 construct: Construct and dimerising part not described; also called Human Receptor BMPR1A
# Assay: as above
# Protocol: as §3
# T8 sequence (P36894 24-152 limits assumed): as the sequence (P36895 24-152 limits assumed) above, with L16S, P21S, T74A counted along it
row,Binder,100 nM Human Receptor Binding [RU]
1,B1,2
2,B2,2
3,B3,2

# Target: T5, human ACVR1 extracellular domain …
# Assay: SPR Biacore T200, mAb captured by anti-human Fc, hACVR1-mmh injected, 37C
# Protocol: as §1, §2
Binder,100 nM Ag Bound (RU),Kd [nM],koff [s⁻¹],kon [M⁻¹ s⁻¹],t½ [h]
B1,43,0.26,0.000176,677000,1.08
B2,42,1.21,0.00159,1.31e+06,0.117
B3,43,0.227,0.000163,718000,1.18
